For this experiment, the target named is T1, human pyruvate kinase isoform M2 (PK M2) (human, UniProt P14618-1 1-531).
T1 construct: Pyruvate kinase isoform M2, human; used at 2 uM in solution
The experiment in a line: ultrafiltration; equimolar HMGB1 and PK M2 (2 uM each) mixed in 300 ul, filtrated (14000 g, 4 C) to 15 ul in an Amicon Ultra 0.5 ml 30 k device; filtrate and retentate analysed by Western blot; HMGB1 and PKM2 also analysed alone. Conditions: both partners purified.

The source of these data is PMC4786644, “The HMGB1 protein induces a metabolic type of tumour cell death by blocking aerobic respiration” (Nature Communications, 2016).

T1 sequence (P14618 whole entry, canonical isoform): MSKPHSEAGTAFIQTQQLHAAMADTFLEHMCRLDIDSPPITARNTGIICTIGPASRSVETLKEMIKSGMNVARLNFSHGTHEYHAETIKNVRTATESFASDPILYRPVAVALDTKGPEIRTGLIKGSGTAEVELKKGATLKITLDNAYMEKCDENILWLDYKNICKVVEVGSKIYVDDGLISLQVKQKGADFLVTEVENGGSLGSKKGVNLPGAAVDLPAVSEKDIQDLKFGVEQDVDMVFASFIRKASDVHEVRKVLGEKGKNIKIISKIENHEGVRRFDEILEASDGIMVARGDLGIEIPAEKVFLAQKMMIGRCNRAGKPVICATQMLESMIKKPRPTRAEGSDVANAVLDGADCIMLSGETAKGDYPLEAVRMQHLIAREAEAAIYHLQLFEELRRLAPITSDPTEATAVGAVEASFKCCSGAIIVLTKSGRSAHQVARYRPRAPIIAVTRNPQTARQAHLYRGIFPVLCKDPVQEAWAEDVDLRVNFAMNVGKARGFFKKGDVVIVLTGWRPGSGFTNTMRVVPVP

B1: recombinant human HMGB1 protein (high-mobility group box 1) (natural protein, UniProt P09429 1-215, looked up)
chain: MGKGDPKKPRGKMSSYAFFVQTCREEHKKKHPDASVNFSEFSKKCSERWKTMSAKEKGKFEDMAKADKARYEREMKTYIPPKGETKKKFKDPNAPKRPPSAFFLFCSEYRPKIKGEHPGLSIGDVAKKLGEMWNNTAADDKQPYEKKAAKLKEKYEKDIAAYRAKGKPDAAKKGVVKAEKSKKKKEEEEDEEDEEDEEEEEDEEDEDEEEDDDDE
notes: High-mobility group box 1 protein, human, recombinant; the only recombinant human HMGB1 named is from Sigma-Aldrich; also called rhHMGB1; source: bought: Sigma-Aldrich (recombinant human HMGB1; human HMGB1 protein produced in E. coli)
Consider B1, for which the binding result is “binds”.
